Measurements taken from patent US20200147235A1 (AbbVie / Abbott, published 2020).

Experiments:
[1] = biological target: T1, Human CD98 ECD with C-terminal His-tag (human, UniProt P08195 105-529); experiment: SPR Biacore, anti-Fc capture of mAb, CD98 ECD analyte
T1 construct: also called huCD98 ECD; recombinant human CD98 extracellular domain
T1 sequence: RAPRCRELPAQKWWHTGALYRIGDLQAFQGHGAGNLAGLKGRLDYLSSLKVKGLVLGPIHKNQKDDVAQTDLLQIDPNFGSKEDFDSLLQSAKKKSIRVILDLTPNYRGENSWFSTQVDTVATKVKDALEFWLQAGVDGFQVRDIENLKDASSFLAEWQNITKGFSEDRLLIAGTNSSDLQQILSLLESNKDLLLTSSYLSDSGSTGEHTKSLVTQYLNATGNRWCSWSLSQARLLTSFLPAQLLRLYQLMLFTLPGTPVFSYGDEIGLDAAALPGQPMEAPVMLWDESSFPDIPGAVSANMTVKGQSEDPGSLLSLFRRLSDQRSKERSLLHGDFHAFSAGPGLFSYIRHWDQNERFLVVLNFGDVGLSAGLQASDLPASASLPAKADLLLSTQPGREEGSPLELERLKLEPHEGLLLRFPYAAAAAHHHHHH
Procedure: (§1) The binding kinetics of these purified mouse and rat monoclonal anti-CD98 antibodies for purified recombinant CD98 protein (extracellular domain. ECD) were determined by surface plasmon resonance-based measurements made on Biacore T100/T200 instruments (GE Healthcare, Piscataway, N.J.) at 25° C. using an anti-Fc capture assay approach. Binding kinetic measurements were made in the assay buffer HBS-EP+: 10 mM Hepes, pH 7.4, 150 mM NaCl, 3 mM EDTA, 0.05% Tween 20). For example, approximately 8000 RU of anti-Fc (species specific) polyclonal antibody (Thermo Fisher Scientific Inc. Rockford, Ill.) diluted in 10 mM sodium acetate (pH 4.5) was directly immobilized across a CM5 research grade biosensor chip using a standard amine coupling kit according to manufacturer's instructions and procedures at 25 μg/ml. Unreacted moieties on the biosensor surface were blocked with ethanolamine. The test antibody to be captured as a ligand was diluted in running buffer to ˜0.5 μg/mL and injected over anti-Fc surface at a flow rate of 10 μL/min, CD98 binding and dissociation were observed under a continuous flow rate of 80 μL/min. Human and cynomolgus monkey CD98 ECDs, both with a C-terminal His-tag, are used for this study (Table 3). After each cycle the anti-Fc capture surface was regenerated using 10 mM Glycine-HCl, pH 1.5. During the assay, all measurements were referenced against the capture surface alone (i.e., with no captured test antibody) and buffer-only injections (no antigen) were used for double referencing. For kinetic analysis, rate equations derived from the 1:1 Langmuir binding model were fitted simultaneously, globally and with mass transfer term included to multiple referenced antigen binding curves using Biacore T100T200 Evaluation software.

[2] = biological target: T2, Cynomolgus monkey CD98 ECD with C-terminal His-tag (cynomolgus monkey, UniProt P08195 105-529 (human entry)); experiment: as above
T2 construct: also called cyCD98 ECD; recombinant cynomolgus monkey CD98 extracellular domain
T2 chain: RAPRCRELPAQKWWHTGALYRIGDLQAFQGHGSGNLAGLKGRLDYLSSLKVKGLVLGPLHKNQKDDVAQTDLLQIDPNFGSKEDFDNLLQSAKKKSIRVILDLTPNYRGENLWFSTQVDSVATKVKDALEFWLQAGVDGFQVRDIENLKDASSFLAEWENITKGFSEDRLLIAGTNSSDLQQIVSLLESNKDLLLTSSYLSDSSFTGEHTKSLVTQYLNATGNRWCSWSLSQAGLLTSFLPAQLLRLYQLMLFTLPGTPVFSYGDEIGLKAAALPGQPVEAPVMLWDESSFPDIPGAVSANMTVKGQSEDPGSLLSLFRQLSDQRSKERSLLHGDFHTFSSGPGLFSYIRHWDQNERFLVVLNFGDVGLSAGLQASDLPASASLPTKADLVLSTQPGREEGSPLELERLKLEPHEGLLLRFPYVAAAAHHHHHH
Procedure: as §1

[3] = biological target: T3, Human CD98 ECD with N-terminal His-tag (human, UniProt P08195 105-529); experiment: SPR (Biacore), recombinant CD98 ECD
T3 construct: The entry includes the linker and the polyhistidine tag; also called huCD98 ECD
T3 sequence: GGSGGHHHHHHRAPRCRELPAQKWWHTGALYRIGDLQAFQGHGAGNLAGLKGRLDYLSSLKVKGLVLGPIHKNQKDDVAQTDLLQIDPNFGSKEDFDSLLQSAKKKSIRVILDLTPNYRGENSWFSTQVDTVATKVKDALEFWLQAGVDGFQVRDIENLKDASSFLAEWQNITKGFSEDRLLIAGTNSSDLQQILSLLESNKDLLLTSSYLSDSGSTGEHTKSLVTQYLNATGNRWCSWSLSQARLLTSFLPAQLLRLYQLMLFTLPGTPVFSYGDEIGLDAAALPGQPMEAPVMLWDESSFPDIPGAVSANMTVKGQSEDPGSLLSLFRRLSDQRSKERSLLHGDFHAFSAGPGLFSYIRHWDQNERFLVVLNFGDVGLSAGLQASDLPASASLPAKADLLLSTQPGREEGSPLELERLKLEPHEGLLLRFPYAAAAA

[4] = biological target: T4, Cynomolgus monkey CD98 ECD with C-terminal His-tag (SEQ ID NO: 127) (cynomolgus monkey, UniProt P08195 105-529 (human entry)); experiment: SPR (Biacore), recombinant CD98 ECD
T4 construct: The entry includes the linker and the polyhistidine tag; also called cyCD98 ECD
T4 chain: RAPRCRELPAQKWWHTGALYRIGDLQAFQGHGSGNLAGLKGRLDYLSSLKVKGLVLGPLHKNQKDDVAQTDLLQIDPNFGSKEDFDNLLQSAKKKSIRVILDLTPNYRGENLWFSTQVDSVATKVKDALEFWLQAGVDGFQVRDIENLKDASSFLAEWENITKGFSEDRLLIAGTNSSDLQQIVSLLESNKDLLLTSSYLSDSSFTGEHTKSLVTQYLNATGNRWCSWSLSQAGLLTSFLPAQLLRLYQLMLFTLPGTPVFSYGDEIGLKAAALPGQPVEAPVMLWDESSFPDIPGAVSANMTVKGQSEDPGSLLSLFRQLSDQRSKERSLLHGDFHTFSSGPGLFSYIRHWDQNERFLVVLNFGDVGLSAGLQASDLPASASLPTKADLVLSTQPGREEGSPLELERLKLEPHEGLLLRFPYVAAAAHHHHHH

B1: Anti-CD98 rat hybridoma antibody Ab7 (antibody, V domains shown)
VH: QVQLKESGPGLVQPSQTLSLTCTVSGFSLSTYGVIWVRQPPGKGLEWMGVIWANGNTNYNSTLKSRLSISRDTSKSQVYLKMNSLQTEDTATYYCARHYYDGTYYYGYFDYWGQGVMVTVSS
VL: DIVMTQTPSSQAVSAGEKVTMNCKSSQSLLYSENKKNYLAWYQQKPGQSPKLLIYWASTRESGVPDRFIGSGSGTDFTLTISSVQAEDLAVYYCQQYYYFPYTFGPGTKLELK
Kd [1]: 0.76 nM
koff [1]: 0.00015 s⁻¹
kon [1]: 200000 M⁻¹ s⁻¹
Kd [2]: 3 nM
koff [2]: 0.00027 s⁻¹
kon [2]: 91000 M⁻¹ s⁻¹

B2: Anti-CD98 rat hybridoma antibody Ab9 (antibody, V domains shown)
VH: QVQLKESGPGLVQPSQTLSLTCAVSGFSLSNYGVIWVRQPPGKGLEWMAVIWTNGNTNYNSTLKSRLSISRDTSKSQVYLKMNSLQTEDTATYYCARHYYDGTYYYGYFDYWGQGVMVTVSS
VL: DIVMTQTPSSQAVSAGEKVTMSCKSSQSLLYTENKKNYLAWYQQKPGQSPKLLIYWASTRESGVPDRFMGSGSGTDFTLTISSVQAEDLAVYYCQQYYYFPYMFGAGTKLELK
Kd [1]: 1.2 nM
koff [1]: 0.00015 s⁻¹
kon [1]: 130000 M⁻¹ s⁻¹
Kd [2]: 9.9 nM
koff [2]: 0.00051 s⁻¹
kon [2]: 51000 M⁻¹ s⁻¹

B3: Anti-CD98 rat hybridoma antibody Ab6 (antibody, V domains shown)
VH: QVQLKESGPGLAQPSQTLSLTCTVSGFSLSTYGVIWLRQPPGKGLEWMGVIWTNGNTNYNSTLKSRLSISRDTSESQVYLQMNSLQTEDTATYYCARHYYDGAYYYGYFDYWGQGVMVTVSS
VL: DIVMTQTPSSQAVSAGEKVTMSCKSSQSLLYSENKKNYLAWYQQKPGQSPKLLIYWASTRESGVPDRFIGSGSGTDFTLTISSVQAEDLAVYYCQQYYYFPYTFGAGTKLELK
Kd [1]: 1.1 nM
koff [1]: 0.00016 s⁻¹
kon [1]: 150000 M⁻¹ s⁻¹
Kd [2]: 5.9 nM
koff [2]: 0.00037 s⁻¹
kon [2]: 62000 M⁻¹ s⁻¹

B4: Anti-CD98 murine hybridoma antibody Ab3 (antibody, V domains shown)
VH: EVKLVESGGGLVQPGNSLRLSCATSGFTFIDYYMSWVRQSPGKALEWLGFIRNKANGYTTEYSASVKGRFTISRDNSQSILYLQMDTLRAEDSATYYCTRDRPAWFVYWGQGTLVTVSA
VL: DIVMSQSPSSLAVSVGEKVTMSCKSSQSLLYSSNQKNYLAWYQQKPGQSPKLLIYWASTRESGVPDRFTGSGSGTDFTLTFSSVRAEDLAVYYCQQYYSYPYTFGGGTKLEIK
Kd [1]: 15 nM
koff [1]: 0.003 s⁻¹
kon [1]: 200000 M⁻¹ s⁻¹
Kd [2]: 30 nM
koff [2]: 0.0012 s⁻¹
kon [2]: 38000 M⁻¹ s⁻¹

B5: Anti-CD98 murine hybridoma antibody Ab4 (antibody, V domains shown)
VH: EVKLVESGGGLVQPGGSLRLSCTTSGFTFTDYYMSWVRQPPGKALEWLGFIRNKATIYTTEYSASVKGRFTISRDNSQSILYLQMNTLRAEDSATYYCARASYGNSEGWFAYWGQGTLVTVSA
VL: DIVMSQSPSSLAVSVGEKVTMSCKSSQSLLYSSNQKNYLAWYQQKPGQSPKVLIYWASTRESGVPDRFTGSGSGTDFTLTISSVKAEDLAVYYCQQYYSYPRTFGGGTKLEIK
Kd [1]: 0.83 nM
koff [1]: 3.7e-05 s⁻¹
kon [1]: 44000 M⁻¹ s⁻¹
Kd [2]: 1.8 nM
koff [2]: 1.7e-05 s⁻¹
kon [2]: 9700 M⁻¹ s⁻¹

B6: Anti-CD98 murine hybridoma antibody Ab2 (antibody, V domains shown)
VH: EVKLVESGGGLVQPGGSLRLSCATSGFNFTDYYMSWVRQPPGKALEWLGFIRNKANGYTTEYSASVKGRFTISRDDSQSILYLQMNTLRAEDSATYYCARASYGNSEGWFAYWGQGTLVTVSA
VL: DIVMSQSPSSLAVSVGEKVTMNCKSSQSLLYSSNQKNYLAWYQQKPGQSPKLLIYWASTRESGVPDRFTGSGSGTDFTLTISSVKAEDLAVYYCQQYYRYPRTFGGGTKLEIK
Kd [1]: 1.1 nM
koff [1]: 8.1e-05 s⁻¹
kon [1]: 73000 M⁻¹ s⁻¹
Kd [2]: 37 nM
koff [2]: 0.00086 s⁻¹
kon [2]: 24000 M⁻¹ s⁻¹

B7: Anti-CD98 murine hybridoma antibody Ab5 (antibody, V domains shown)
VH: EVKLVESGGGLVQPGGSLRLSCATSGFTFTDYYMTWVRQPPGKALEWLGFIRNKANGYTTEYSASVKGRFTISRDNSLSILYLQMNTLRAEDSATYYCARASYVNSEGWFAYWGQGTLVTVSA
VL: DIVMSQSPSSLAVSVGEKVTMSCKSSQSLLYSSNQKNYLAWYQQKLGQSPKLLIYWASTRESGVPDRFTGSGSGTDFTLTISSVKAEDLAVYYCQHYYSYPRTFGGGTKLEIK
Kd [1]: 2.2 nM
koff [1]: 0.00012 s⁻¹
kon [1]: 52000 M⁻¹ s⁻¹
Kd [2]: 11 nM
koff [2]: 0.00022 s⁻¹
kon [2]: 21000 M⁻¹ s⁻¹

B8: Anti-CD98 rat hybridoma antibody Ab11 (antibody, V domains shown)
VH: EVQLVESGGGLVQPGRSLKLSCAASGFTFSDYAMAWVRQAPKKGLEWVAGIIYDGRGTYYRDSVKGRFTISRDNAKSTLYLQMDSLRSEDTATYYCARQGDGTYYYWGYFDYWGQGVMVTVSS
VL: DIVMTQSPSSLAVSAGETVTINCRSSQSLLSSGNQKNYLAWYQQKPGQSPKLLIYWASTRQSGVPDRFIGSGSGTDFTLTISSVQAEDLAIYYCQQYYDTPYTFGAGTKLELK
Kd [1]: 18 nM
koff [1]: 0.0012 s⁻¹
kon [1]: 65000 M⁻¹ s⁻¹
Kd [2]: 72 nM
koff [2]: 0.0017 s⁻¹
kon [2]: 24000 M⁻¹ s⁻¹

B9: Anti-CD98 rat hybridoma antibody Ab15 (antibody, V domains shown)
VH: EVQLVESGGGLVQPGRSLKLSCAASGFTFSDYTMAWVRQAPKKGLEWVATIIYDGRGTYYRDSVKGRFTISRDNAKSTLYLQMDSLRSEDTATYYCARQSDGTYYYWGYFDYWGQGVMVTVSS
VL: DIVMTQSPSSLAVSAGETVTINCKSSQSLLFSGNQKNYLAWYQQKPGQSPKLLIYWASTRQSGVPDRFIGSGSGTDFTLTIRSVQAEDLAIYYCQQYYDSPYTFGAGTKLELK
Kd [1]: 0.68 nM
koff [1]: 5.3e-05 s⁻¹
kon [1]: 77000 M⁻¹ s⁻¹
Kd [2]: 3.3 nM
koff [2]: 9.6e-05 s⁻¹
kon [2]: 29000 M⁻¹ s⁻¹

B10: Anti-CD98 rat hybridoma antibody Ab10 (antibody, V domains shown)
VH: EVQLVESGGGLVQPGRSLKLSCAASGFTFSDYAMAWVRQAPKKSLEWVATIIYDGRGTYCRDSVKGRFTISRDNAKSTLYLQMDSLRSEDTATYYCARQGDGTYHYWGYFDYWGQGVMVTVSS
VL: DIVMTQSPSSLAVSAGETVTINCKSSQSLLSSGNQKNYLAWYQQKPGQSPKLLIYWASTRQSGVPDRFIGSGSGTDFTLTISSVQAEDLAIYYCQQYYDTPYTFGAGTKVDLK
Kd [1]: 2 nM
koff [1]: 0.00024 s⁻¹
kon [1]: 130000 M⁻¹ s⁻¹
Kd [2]: 7.8 nM
koff [2]: 0.00049 s⁻¹
kon [2]: 62000 M⁻¹ s⁻¹

B11: huAb101 (antibody, V domains shown)
VH: EVQLVESGGGLVKPGGSLRLSCATSGFTFIDYYMSWVRQAPGKGLEWLGFIRNKANRYTTEYSASVKGRFTISRDNSKSILYLQMNSLKTEDTAVYYCTRDRPAWFVYWGQGTLVTVSS
VL: DIVMTQTPLSLPVTPGEPASISCKSSQSLLYSSNQKNYLAWYLQKPGQSPQLLIYWASTRESGVPDRFSGSGSGTDFTLKISRVEAEDVGVYYCQQYYSYPYTFGGGTKVEIK
notes: Framework re-engineered humanized clone (parent huAb3v1), expressed as full-length IgG
Kd [3]: 6.1 nM
koff [3]: 0.0018 s⁻¹
kon [3]: 290000 M⁻¹ s⁻¹
Kd [4]: 23 nM
koff [4]: 0.00067 s⁻¹
kon [4]: 30000 M⁻¹ s⁻¹
